The text below walks through data of PMC11963481, “The Vacuolar Inositol Transporter BvINT1;1 Contributes to Raffinose Biosynthesis and Reactive Oxygen Species Scavenging During Cold Stress in Sugar Beet” (Plant, Cell & Environment, 2025).

This series concerns T1, O[C@H]1[C@H](O)[C@@H](O)[C@H](O)[C@@H](O)[C@H]1O.
T1 construct: full-length CDS with C-terminal dileucine motif mutated (LL489/490AA) for plasma membrane targeting; cRNA-injected Xenopus laevis oocytes
In words: two-electrode voltage clamp, inward currents in Xenopus oocytes, Michaelis-Menten fit. It is filed as cell-based, Beta vulgaris. The note with it: pH 5.5, room temperature, holding potential -20 mV, 96 mM NaCl bath, inositol/H+ symport, n = 7 oocytes. For orientation: Two-electrode voltage clamp holds a large cell at a set potential and records current.

In general, Km refers to the substrate concentration at which the rate is half of its maximum. “BvINT1;1 LL489/490AA (INT1;1^PM, BvINT1;1^PM) (Beta vulgaris subsp. vulgaris; L489A/L490A)”: the Km was found to be 2300 ± 300 µM.
